The results in this text go back to patent publication US10428140B2, “Anti-EphA4 antibody” (EISAI R&D MANAGEMENT CO., LTD., priority 2015, dated 2019).

Where a chain is given by its changes, count along the chain named.

To fix the notation:
B1: 69 (antibody, V domains shown)
VH: QIQLVQSGSELKKPGASVKVSCKASGYTFTDYSMHWVRQAPGQGLKWMGWINTETGEPTYADDFKGRFVFSLDTSVSTAYLQISSLKAEDTAVYYCARIPLYYYGSRYWYFDVWGQGTTVTVSS
VL: DIQMTQSPSSLSASVGDRVTITCRASENIYRNLAWYQQKPGKAPKLLVYAATNLADGVPSRFSGSGSGTDYTLTISSLQPEDFATYYCQHFWGTPWTFGQGTKVEIK
modifications: synthetic humanized antibody heavy chain variable region sequence; synthetic humanized antibody light chain variable region sequence
B2: 93 (antibody, V domains shown)
VL: EIVMTQSPATLSVSPGERATLSCRASENIYRNLAWYQQKPGQSPRLLIYAATNLADGIPARFSGSGSGTEYTLTISSLQSEDFAVYYCQHFWGTPWTFGQGTKVEIK
VH: B1 VH with I2V, K46E, D62Q, D63G, K65T
modifications: constant regions without entry; synthetic humanized antibody light chain variable region sequence; synthetic humanized antibody heavy chain variable region sequence
B3: 81 (antibody, V domains shown)
VL: B1 VL with V48L, P80S
VH: B1 VH with I2V, K46E, D62Q, D63G, K65T
modifications: constant regions without entry; synthetic humanized antibody light chain variable region sequence; synthetic humanized antibody heavy chain variable region sequence
B4: 83 (antibody, V domains shown)
VL: B1 VL with V48L, P80S
VH: B1 VH with D62Q, D63G, K65T
modifications: constant regions without entry; synthetic humanized antibody light chain variable region sequence; synthetic humanized antibody heavy chain variable region sequence
B5: 82 (antibody, V domains shown)
VL: B1 VL with V48L, P80S
VH: B1 VH with I2V, D62Q, D63G, K65T
modifications: constant regions without entry; synthetic humanized antibody light chain variable region sequence; synthetic humanized antibody heavy chain variable region sequence
B6: 89 (antibody, V domains shown)
VL: B1 VL with K45Q, V48L
VH: B1 VH with D62Q, D63G, K65T
modifications: constant regions without entry; synthetic humanized antibody light chain variable region sequence; synthetic humanized antibody heavy chain variable region sequence
B7: 90 (antibody, V domains shown)
VL: B1 VL with K45Q, V48L
VH: B1 VH with I2V, K46E
modifications: constant regions without entry; synthetic humanized antibody light chain variable region sequence; synthetic humanized antibody heavy chain variable region sequence
B8: 87 (antibody, V domains shown)
VL: B1 VL with K45Q, V48L
VH: B1 VH with I2V, K46E, D62Q, D63G, K65T
modifications: constant regions without entry; synthetic humanized antibody light chain variable region sequence; synthetic humanized antibody heavy chain variable region sequence
B9: 86 (antibody, V domains shown)
VL: B1 VL with V48L, P80S
VH: B1 VH
modifications: constant regions without entry; synthetic humanized antibody light chain variable region sequence; synthetic humanized antibody heavy chain variable region sequence
B10: 85 (antibody, V domains shown)
VL: B1 VL with V48L, P80S
VH: B1 VH with I2V
modifications: constant regions without entry; synthetic humanized antibody light chain variable region sequence; synthetic humanized antibody heavy chain variable region sequence
B11: 88 (antibody, V domains shown)
VL: B1 VL with K45Q, V48L
VH: B1 VH with I2V, D62Q, D63G, K65T
modifications: constant regions without entry; synthetic humanized antibody light chain variable region sequence; synthetic humanized antibody heavy chain variable region sequence
B12: 92 (antibody, V domains shown)
VL: B1 VL with K45Q, V48L
VH: B1 VH
modifications: constant regions without entry; synthetic humanized antibody light chain variable region sequence; synthetic humanized antibody heavy chain variable region sequence
B13: 91 (antibody, V domains shown)
VL: B1 VL with K45Q, V48L
VH: B1 VH with I2V
modifications: constant regions without entry; synthetic humanized antibody light chain variable region sequence; synthetic humanized antibody heavy chain variable region sequence
B14: 84 (antibody, V domains shown)
VL: B1 VL with V48L, P80S
VH: B1 VH with I2V, K46E
modifications: constant regions without entry; synthetic humanized antibody light chain variable region sequence; synthetic humanized antibody heavy chain variable region sequence

For the first test, the target named is T1, human EphA4 (binding to human Ephrin A5) (Homo sapiens, UniProt P54764).
T1 construct: made in house; not restated for the human SEAP-His protein
T1 sequence (P54764 20-547): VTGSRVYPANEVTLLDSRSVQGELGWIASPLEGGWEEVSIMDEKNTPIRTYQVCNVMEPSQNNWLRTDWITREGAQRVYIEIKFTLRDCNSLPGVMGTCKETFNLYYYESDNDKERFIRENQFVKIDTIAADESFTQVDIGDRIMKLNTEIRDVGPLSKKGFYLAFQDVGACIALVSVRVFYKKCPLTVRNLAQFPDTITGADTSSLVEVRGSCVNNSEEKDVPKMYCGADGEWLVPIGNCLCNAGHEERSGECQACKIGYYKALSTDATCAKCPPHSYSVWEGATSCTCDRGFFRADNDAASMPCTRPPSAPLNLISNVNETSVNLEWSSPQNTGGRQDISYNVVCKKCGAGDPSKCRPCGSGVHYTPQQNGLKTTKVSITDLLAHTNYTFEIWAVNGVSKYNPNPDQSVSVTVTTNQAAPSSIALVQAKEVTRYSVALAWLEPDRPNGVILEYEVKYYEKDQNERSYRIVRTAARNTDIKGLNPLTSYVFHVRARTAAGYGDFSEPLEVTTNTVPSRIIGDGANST
As to the kind of experiment: Human EphA4-human ligand binding inhibition ELISA of humanized antibodies (biotinylated Ephrin A5-Fc). Conditions: biotinylated human Ephrin A5-Fc 0.7 nM. Here is the method:
Each anti-EphA4 monoclonal humanized antibody obtained in Example 16 was evaluated for its inhibitory activity against the binding between human EphA4 and its human ligand according to the following steps. Each well of a 96-well plate (Nunc) was coated with an anti-alkaline phosphatase antibody (Thermo Fisher Scientific). After incubation overnight at 4° C., each well was blocked with 1% BlockAce (DS Pharma Biomedical) at room temperature for 1 hour. After washing with 0.05% Tween 20/PBS (Thermo Fisher Scientific) three times, the human EphA4 extracellular region-SEAP-His protein obtained by the method of Example 2 was added (final concentration: 10 nM) to each well and incubated at room temperature for 1 hour. After washing three times, a ligand and each serially diluted humanized antibody of antibody A (0, 0.003, 0.01, 0.03, 0.1, 0.3, 1, 3, 10, 30, 100, 300, 1000, and 3000 nM) were added to each well. The ligand used was biotinylated human Ephrin A5-Fc chimera (R&D Systems, final concentration: 0.7 nM). After incubation at room temperature for 1 hour and subsequent washing three times, horseradish peroxidase-labeled streptavidin (GE Healthcare) was added thereto and incubated at room temperature for 1 hour. After washing three times, a TMBZ (3,3′,5,5′-tetramethylbenzidine, Sigma-Aldrich) solution was added to each well and incubated at room temperature for 2 minutes. An equal amount of a reaction stopping solution (1N H2SO4, Wako Pure Chemical Industries) was added to each well. The absorbance at 450 nm was read using a microplate reader (PerkinElmer).
The molecule B1 yielded an IC50 of 3.1 nM.

B2: the IC50 amounted to 2.5 nM.

As for B3, the IC50 is 4 nM.

B4 came in with an IC50 of 3.7 nM.

Molecule B5 displayed an IC50 of 4.1 nM.

In the case of B6, the IC50 was 4.3 nM.

In turn, B7 returned an IC50 of 4.5 nM.

As for B8, the IC50 turned out to be 3 nM.

In turn, B9 yielded an IC50 of 4 nM.

B10 showed an IC50 of 4 nM.

On to B11, for which the IC50 turned out to be 3.6 nM.

The molecule B12 came in with an IC50 of 3.5 nM.

As for B13, the IC50 was determined as 4.9 nM.

On to B14, for which the IC50 was 4.6 nM.

Another test concerns the target T2, human EphA3 (Homo sapiens, UniProt P29320).
T2 construct: a protein of the extracellular region of each human Eph receptor fused with the SEAP protein and the His tag; made in house; host or cells: Expi293F cells (culture supernatant)
T2 sequence (P29320 21-541 limits assumed): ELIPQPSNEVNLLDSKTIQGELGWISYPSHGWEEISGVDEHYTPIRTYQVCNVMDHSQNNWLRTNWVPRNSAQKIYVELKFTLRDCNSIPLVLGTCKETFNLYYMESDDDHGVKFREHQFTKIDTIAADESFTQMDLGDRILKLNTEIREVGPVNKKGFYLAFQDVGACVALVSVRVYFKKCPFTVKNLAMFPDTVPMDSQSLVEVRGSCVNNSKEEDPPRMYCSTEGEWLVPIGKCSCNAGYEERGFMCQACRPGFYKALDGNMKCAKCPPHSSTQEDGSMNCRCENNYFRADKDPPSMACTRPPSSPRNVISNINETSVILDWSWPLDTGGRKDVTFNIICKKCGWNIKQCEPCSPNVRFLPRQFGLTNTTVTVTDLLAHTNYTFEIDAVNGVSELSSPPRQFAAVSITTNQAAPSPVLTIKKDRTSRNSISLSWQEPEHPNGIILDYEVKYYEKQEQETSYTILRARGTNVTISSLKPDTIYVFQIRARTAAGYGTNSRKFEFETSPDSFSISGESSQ
As to the kind of experiment: Selectivity ELISA of humanized antibodies for human Eph receptor. In kind it is binding. The settings on record: coated protein 1 nM. In outline:
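Read-out is A450 after TMB development stopped with 1N H2SO4. Plates bore anti-His-captured human Eph extracellular region-SEAP-His proteins at 1 nM final, made in Expi293F cells. Humanized antibody binding ran 1 h at room temperature before HRP-labeled anti-IgG detection.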
As for B1, the “hEphA3-SEAP-: absorbance at 450 nm, percentage with respect to hEphA4-SEAP-His as 100%” value is 5.4%.

Take B2: the “hEphA3-SEAP-: absorbance at 450 nm, percentage with respect to hEphA4-SEAP-His as 100%” value was 5.1%.

Take B3: the “hEphA3-SEAP-: absorbance at 450 nm, percentage with respect to hEphA4-SEAP-His as 100%” value is listed as 5.0%.

For B4, the “hEphA3-SEAP-: absorbance at 450 nm, percentage with respect to hEphA4-SEAP-His as 100%” value was determined as 5.7%.

Take B5: the “hEphA3-SEAP-: absorbance at 450 nm, percentage with respect to hEphA4-SEAP-His as 100%” value is recorded as 5.4%.

Consider B6, for which the “hEphA3-SEAP-: absorbance at 450 nm, percentage with respect to hEphA4-SEAP-His as 100%” value turned out to be 5.8%.

Take B7: the “hEphA3-SEAP-: absorbance at 450 nm, percentage with respect to hEphA4-SEAP-His as 100%” value worked out at 5.2%.

B8: the “hEphA3-SEAP-: absorbance at 450 nm, percentage with respect to hEphA4-SEAP-His as 100%” value was found to be 5.5%.

For B9, the “hEphA3-SEAP-: absorbance at 450 nm, percentage with respect to hEphA4-SEAP-His as 100%” value came to 5.8%.

For B10, the “hEphA3-SEAP-: absorbance at 450 nm, percentage with respect to hEphA4-SEAP-His as 100%” value is 5.1%.

Consider B11, for which the “hEphA3-SEAP-: absorbance at 450 nm, percentage with respect to hEphA4-SEAP-His as 100%” value is 6.0%.

B12: the “hEphA3-SEAP-: absorbance at 450 nm, percentage with respect to hEphA4-SEAP-His as 100%” value stood at 6.5%.

For B13, the “hEphA3-SEAP-: absorbance at 450 nm, percentage with respect to hEphA4-SEAP-His as 100%” value came to 6.6%.

Turning to B14, the “hEphA3-SEAP-: absorbance at 450 nm, percentage with respect to hEphA4-SEAP-His as 100%” value amounted to 4.9%.
